From patent US20180155450A1 (Sanofi, published 2018) come the findings set out here.

T1: recombinant human IL4 (human, UniProt P05112 25-153)
T1 construct: bought
T1 sequence (looked up): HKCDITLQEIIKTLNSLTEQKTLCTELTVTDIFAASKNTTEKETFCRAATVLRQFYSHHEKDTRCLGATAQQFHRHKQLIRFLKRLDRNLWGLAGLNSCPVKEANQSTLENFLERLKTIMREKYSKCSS

T2: recombinant human IL4 (human, UniProt P05112 25-153)
T2 construct: bought; also called Antigen1
T2 sequence (looked up): T1 sequence (looked up)

B1: CODV-Ig Batch ID 802 (Batch ID 204 with LC G114C, HC Q43C) (bispecific antibody)
heavy: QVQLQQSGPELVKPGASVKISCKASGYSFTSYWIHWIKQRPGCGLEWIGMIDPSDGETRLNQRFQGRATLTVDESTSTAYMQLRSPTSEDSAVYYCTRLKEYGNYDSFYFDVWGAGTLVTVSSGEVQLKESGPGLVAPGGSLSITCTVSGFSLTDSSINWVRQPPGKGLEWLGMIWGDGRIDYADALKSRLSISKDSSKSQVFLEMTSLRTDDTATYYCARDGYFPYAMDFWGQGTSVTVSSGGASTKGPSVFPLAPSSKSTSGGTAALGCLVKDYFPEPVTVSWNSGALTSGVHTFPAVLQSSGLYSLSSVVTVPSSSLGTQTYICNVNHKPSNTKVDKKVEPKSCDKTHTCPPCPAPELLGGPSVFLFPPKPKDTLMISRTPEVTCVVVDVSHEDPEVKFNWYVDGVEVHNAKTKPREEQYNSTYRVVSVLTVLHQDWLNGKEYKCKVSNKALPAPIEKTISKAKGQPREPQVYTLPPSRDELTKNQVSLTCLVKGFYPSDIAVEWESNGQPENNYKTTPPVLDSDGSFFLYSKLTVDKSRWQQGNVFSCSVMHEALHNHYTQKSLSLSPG
light: DIVLTQSPASLAVSLGQRATISCRASESVDSYGQSYMHWYQQKAGQPPKLLIYLASNLESGVPARFSGSGSRTDFTLTIDPVQAEDAATYYCQQNAEDSRTFGGGTKLEIKGGCGGGGDIQMTQSPASLSVSVGDTITLTCHASQNIDVWLSWFQQKPGNIPKLLIYKASNLHTGVPSRFSGSGSGTGFTLTISSLQPEDIATYYCQQAHSYPFTFGGGTKLEIKGGGGGRTVAAPSVFIFPPSDEQLKSGTASVVCLLNNFYPREAKVQWKVDNALQSGNSQESVTEQDSKDSTYSLSSTLTLSKADYEKHKVYACEVTHQGLSSPVTKSFNRGEC
modifications: Engineered cysteine pair LC C114 (in L1) and HC C43, intended inter-chain disulfide.
notes: The mutation numbers are read as counts along the whole chain: G114C lies in L1 as printed; Q43C lies in the N-terminal anti-IL4 VH
B2: CODV-Ig Batch ID 508 (IL4 × IL13 on HC; L1 HIDSPNK, L2 QRIEG, L3 V, L4 SL) (bispecific antibody)
heavy: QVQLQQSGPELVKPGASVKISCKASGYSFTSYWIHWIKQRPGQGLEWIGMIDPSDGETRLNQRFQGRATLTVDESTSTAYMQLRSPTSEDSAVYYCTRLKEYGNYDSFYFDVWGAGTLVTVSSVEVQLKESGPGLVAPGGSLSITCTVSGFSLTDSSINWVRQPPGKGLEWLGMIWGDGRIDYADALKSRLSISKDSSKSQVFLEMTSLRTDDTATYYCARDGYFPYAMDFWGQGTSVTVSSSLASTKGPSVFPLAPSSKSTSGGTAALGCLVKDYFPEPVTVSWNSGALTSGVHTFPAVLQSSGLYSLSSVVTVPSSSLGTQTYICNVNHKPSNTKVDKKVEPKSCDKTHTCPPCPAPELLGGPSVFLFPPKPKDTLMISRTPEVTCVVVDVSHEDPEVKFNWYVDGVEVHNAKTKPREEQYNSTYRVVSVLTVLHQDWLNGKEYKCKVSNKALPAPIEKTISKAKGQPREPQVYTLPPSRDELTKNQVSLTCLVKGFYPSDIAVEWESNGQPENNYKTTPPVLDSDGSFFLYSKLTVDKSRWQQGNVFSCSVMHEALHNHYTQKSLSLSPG
light: DIVLTQSPASLAVSLGQRATISCRASESVDSYGQSYMHWYQQKAGQPPKLLIYLASNLESGVPARFSGSGSRTDFTLTIDPVQAEDAATYYCQQNAEDSRTFGGGTKLEIKHIDSPNKDIQMTQSPASLSVSVGDTITLTCHASQNIDVWLSWFQQKPGNIPKLLIYKASNLHTGVPSRFSGSGSGTGFTLTISSLQPEDIATYYCQQAHSYPFTFGGGTKLEIKQRIEGRTVAAPSVFIFPPSDEQLKSGTASVVCLLNNFYPREAKVQWKVDNALQSGNSQESVTEQDSKDSTYSLSSTLTLSKADYEKHKVYACEVTHQGLSSPVTKSFNRGEC
B3: CODV-Ig Batch ID 506 (IL4 × IL13 on HC; L1 GQPKAAP, L2 TVAAP, L3 S, L4 TK) (bispecific antibody)
heavy: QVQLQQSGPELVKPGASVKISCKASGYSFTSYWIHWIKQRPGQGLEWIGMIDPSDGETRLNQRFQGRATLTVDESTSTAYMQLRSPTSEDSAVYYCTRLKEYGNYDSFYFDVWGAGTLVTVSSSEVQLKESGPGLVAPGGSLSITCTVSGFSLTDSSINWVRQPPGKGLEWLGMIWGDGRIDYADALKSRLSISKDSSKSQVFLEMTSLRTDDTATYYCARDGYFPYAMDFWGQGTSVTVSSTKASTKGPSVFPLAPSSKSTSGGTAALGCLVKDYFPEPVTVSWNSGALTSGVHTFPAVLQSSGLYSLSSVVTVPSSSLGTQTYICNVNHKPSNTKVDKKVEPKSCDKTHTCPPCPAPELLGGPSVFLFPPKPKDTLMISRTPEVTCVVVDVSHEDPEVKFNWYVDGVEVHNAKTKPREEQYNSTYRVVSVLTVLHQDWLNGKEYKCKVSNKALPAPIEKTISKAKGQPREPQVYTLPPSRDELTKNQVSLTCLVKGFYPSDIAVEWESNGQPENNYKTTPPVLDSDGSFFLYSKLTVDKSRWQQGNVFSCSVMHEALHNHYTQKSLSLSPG
light: DIVLTQSPASLAVSLGQRATISCRASESVDSYGQSYMHWYQQKAGQPPKLLIYLASNLESGVPARFSGSGSRTDFTLTIDPVQAEDAATYYCQQNAEDSRTFGGGTKLEIKGQPKAAPDIQMTQSPASLSVSVGDTITLTCHASQNIDVWLSWFQQKPGNIPKLLIYKASNLHTGVPSRFSGSGSGTGFTLTISSLQPEDIATYYCQQAHSYPFTFGGGTKLEIKTVAAPRTVAAPSVFIFPPSDEQLKSGTASVVCLLNNFYPREAKVQWKVDNALQSGNSQESVTEQDSKDSTYSLSSTLTLSKADYEKHKVYACEVTHQGLSSPVTKSFNRGEC
B4: CODV-Ig Batch ID 505 (IL4 × IL13 on HC; L1 GQPKAAP, L2 TKGPS, L3 S, L4 RT) (bispecific antibody)
heavy: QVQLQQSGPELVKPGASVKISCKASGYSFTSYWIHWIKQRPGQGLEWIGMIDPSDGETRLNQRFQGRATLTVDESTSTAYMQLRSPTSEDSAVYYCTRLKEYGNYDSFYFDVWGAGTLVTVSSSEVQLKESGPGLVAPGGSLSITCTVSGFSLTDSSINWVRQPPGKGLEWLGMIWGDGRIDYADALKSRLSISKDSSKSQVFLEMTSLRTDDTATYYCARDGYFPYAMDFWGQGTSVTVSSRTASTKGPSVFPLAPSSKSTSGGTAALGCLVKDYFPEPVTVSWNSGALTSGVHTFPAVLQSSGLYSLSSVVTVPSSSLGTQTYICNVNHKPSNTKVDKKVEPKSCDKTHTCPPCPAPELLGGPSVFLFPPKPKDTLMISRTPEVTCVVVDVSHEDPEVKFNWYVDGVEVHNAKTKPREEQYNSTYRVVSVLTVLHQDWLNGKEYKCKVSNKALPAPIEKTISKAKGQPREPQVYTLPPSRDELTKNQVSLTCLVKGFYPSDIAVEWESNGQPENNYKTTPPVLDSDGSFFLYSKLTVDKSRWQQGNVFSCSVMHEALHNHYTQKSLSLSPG
light: B3 light with V227K, A228G, A229P, P230S
B5: CODV-Ig Batch ID 507 (IL4 × IL13 on HC; L1 GQPKAAP, L2 QPKAA, L3 S, L4 RT) (bispecific antibody)
heavy: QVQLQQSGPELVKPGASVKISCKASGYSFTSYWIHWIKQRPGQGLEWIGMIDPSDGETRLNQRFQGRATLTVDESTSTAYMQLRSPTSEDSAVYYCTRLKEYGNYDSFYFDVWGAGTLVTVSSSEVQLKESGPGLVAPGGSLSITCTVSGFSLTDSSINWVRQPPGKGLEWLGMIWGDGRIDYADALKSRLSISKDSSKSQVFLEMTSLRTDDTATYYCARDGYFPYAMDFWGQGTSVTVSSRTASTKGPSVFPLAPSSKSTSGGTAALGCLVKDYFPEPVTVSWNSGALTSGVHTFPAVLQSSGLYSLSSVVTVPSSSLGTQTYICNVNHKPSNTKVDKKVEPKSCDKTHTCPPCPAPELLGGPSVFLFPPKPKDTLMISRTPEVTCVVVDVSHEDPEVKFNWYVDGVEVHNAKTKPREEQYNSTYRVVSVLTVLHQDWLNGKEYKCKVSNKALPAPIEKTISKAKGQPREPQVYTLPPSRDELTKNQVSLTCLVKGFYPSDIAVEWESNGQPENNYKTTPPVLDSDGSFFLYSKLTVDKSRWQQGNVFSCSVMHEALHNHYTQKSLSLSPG
light: B3 light with T226Q, V227P, A228K, P230A
B6: CODV-Ig Batch ID 501 (IL4 × IL13 on HC; L1 ASTKGPS, L2 TKGPS, L3 S, L4 RT) (bispecific antibody)
heavy: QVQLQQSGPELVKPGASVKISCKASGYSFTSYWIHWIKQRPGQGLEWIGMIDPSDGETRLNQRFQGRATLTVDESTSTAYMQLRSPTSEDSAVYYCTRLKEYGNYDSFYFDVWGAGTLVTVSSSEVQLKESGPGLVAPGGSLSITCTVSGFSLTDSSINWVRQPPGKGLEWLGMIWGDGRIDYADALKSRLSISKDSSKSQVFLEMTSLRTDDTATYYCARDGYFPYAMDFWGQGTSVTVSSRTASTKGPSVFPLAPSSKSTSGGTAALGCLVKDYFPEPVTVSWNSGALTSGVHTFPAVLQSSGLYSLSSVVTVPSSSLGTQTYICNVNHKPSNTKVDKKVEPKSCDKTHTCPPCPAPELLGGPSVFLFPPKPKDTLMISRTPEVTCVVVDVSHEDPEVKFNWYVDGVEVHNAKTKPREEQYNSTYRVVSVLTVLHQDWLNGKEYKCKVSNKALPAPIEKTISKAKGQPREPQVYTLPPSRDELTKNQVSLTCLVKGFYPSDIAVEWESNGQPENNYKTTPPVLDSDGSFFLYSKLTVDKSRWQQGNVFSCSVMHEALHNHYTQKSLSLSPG
light: B1 light with G112A, G113S, C114T, G115K, G117P, G118S, G226T, G227K, G229P, G230S
B7: CODV-Ig Batch ID 502 (IL4 × IL13 on HC; L1 ASTKGPS, L2 TVAAP, L3 S, L4 QP) (bispecific antibody)
heavy: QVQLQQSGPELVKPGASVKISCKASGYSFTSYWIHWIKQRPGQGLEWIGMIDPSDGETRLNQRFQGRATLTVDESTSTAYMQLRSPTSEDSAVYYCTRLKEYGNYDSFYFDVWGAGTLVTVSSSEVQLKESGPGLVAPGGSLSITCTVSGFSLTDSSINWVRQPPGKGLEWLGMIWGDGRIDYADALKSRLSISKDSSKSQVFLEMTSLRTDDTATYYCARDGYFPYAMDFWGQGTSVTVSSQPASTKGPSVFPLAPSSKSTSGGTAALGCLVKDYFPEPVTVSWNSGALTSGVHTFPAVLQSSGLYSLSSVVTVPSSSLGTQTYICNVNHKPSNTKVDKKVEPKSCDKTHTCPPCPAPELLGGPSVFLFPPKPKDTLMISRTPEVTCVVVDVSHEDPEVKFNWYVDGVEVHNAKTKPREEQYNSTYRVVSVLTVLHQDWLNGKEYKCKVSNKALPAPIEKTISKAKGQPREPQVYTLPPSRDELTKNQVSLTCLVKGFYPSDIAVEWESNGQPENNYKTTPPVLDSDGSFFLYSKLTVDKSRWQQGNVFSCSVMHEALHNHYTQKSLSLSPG
light: B3 light with G112A, Q113S, P114T, A116G, A117P, P118S
B8: CODV-Ig Batch ID 504 (IL4 × IL13 on HC; L1 RTVAAPS, L2 QPKAA, L3 S, L4 TK) (bispecific antibody)
heavy: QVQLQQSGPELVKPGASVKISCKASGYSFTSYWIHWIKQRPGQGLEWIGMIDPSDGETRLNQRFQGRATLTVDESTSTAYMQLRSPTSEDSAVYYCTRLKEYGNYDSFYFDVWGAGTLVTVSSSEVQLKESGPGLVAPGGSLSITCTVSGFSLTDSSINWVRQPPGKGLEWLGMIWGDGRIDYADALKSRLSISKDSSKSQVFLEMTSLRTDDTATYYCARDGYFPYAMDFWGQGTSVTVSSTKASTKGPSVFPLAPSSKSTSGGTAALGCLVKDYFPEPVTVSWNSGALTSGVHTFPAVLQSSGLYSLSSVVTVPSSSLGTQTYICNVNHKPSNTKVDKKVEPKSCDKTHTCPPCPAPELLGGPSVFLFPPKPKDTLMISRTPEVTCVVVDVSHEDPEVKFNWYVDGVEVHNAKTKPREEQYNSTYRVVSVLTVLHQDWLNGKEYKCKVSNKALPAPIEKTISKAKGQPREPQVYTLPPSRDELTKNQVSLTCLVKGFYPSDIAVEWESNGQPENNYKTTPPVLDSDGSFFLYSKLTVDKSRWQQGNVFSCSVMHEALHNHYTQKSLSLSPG
light: B3 light with G112R, Q113T, P114V, K115A, A117P, P118S, T226Q, V227P, A228K, P230A
B9: CODV-Ig Batch ID 503 (IL4 × IL13 on HC; L1 ASTKGPS, L2 TVAAP, L3 S, L4 SS) (bispecific antibody)
heavy: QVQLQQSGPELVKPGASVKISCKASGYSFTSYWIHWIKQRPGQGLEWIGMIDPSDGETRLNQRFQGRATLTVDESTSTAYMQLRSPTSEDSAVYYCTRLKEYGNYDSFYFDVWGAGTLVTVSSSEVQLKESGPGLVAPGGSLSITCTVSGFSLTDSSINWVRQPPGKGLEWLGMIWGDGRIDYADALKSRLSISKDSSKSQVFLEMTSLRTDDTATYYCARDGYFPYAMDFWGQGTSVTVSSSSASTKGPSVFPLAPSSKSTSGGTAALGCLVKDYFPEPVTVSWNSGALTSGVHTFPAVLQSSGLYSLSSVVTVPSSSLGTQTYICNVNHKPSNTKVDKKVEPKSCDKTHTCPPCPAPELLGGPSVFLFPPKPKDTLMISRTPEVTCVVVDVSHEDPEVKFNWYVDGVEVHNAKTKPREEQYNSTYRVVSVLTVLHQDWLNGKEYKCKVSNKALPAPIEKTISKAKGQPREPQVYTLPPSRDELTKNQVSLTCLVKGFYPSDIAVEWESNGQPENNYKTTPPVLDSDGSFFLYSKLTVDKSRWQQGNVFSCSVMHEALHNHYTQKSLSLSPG
light: B3 light with G112A, Q113S, P114T, A116G, A117P, P118S
B10: CODV-Ig Batch ID 243 (IL4 × IL13 on HC; L1=3, L2=6, L3=6, L4=0) (bispecific antibody)
chain 1: not shown
chain 2: DIVLTQSPASLAVSLGQRATISCRASESVDSYGQSYMHWYQQKAGQPPKLLIYLASNLESGVPARFSGSGSRTDFTLTIDPVQAEDAATYYCQQNAEDSRTFGGGTKLEIKGGGDIQMTQSPASLSVSVGDTITLTCHASQNIDVWLSWFQQKPGNIPKLLIYKASNLHTGVPSRFSGSGSGTGFTLTISSLQPEDIATYYCQQAHSYPFTFGGGTKLEIKGGGGGGRTVAAPSVFIFPPSDEQLKSGTASVVCLLNNFYPREAKVQWKVDNALQSGNSQESVTEQDSKDSTYSLSSTLTLSKADYEKHKVYACEVTHQGLSSPVTKSFNRGEC
B11: CODV-Ig Batch ID 238 (IL4 × IL13 on HC; L1=5, L2=5, L3=5, L4=2) (bispecific antibody)
chain 1: not shown
chain 2: DIVLTQSPASLAVSLGQRATISCRASESVDSYGQSYMHWYQQKAGQPPKLLIYLASNLESGVPARFSGSGSRTDFTLTIDPVQAEDAATYYCQQNAEDSRTFGGGTKLEIKGGGGGDIQMTQSPASLSVSVGDTITLTCHASQNIDVWLSWFQQKPGNIPKLLIYKASNLHTGVPSRFSGSGSGTGFTLTISSLQPEDIATYYCQQAHSYPFTFGGGTKLEIKGGGGGRTVAAPSVFIFPPSDEQLKSGTASVVCLLNNFYPREAKVQWKVDNALQSGNSQESVTEQDSKDSTYSLSSTLTLSKADYEKHKVYACEVTHQGLSSPVTKSFNRGEC
B12: CODV-Ig Batch ID 202 (IL4 × IL13 on HC; L1=5, L2=5, L3=1, L4=2) (bispecific antibody)
chain 1: not shown
chain 2: B11 chain 2
B13: CODV-Ig Batch ID 240 (IL4 × IL13 on HC; L1=7, L2=5, L3=5, L4=2) (bispecific antibody)
chain 1: not shown
chain 2: B1 light with C114G
B14: CODV-Ig Batch ID 237 (IL4 × IL13 on HC; L1=5, L2=3, L3=5, L4=2) (bispecific antibody)
chain 1: not shown
chain 2: DIVLTQSPASLAVSLGQRATISCRASESVDSYGQSYMHWYQQKAGQPPKLLIYLASNLESGVPARFSGSGSRTDFTLTIDPVQAEDAATYYCQQNAEDSRTFGGGTKLEIKGGGGGDIQMTQSPASLSVSVGDTITLTCHASQNIDVWLSWFQQKPGNIPKLLIYKASNLHTGVPSRFSGSGSGTGFTLTISSLQPEDIATYYCQQAHSYPFTFGGGTKLEIKGGGRTVAAPSVFIFPPSDEQLKSGTASVVCLLNNFYPREAKVQWKVDNALQSGNSQESVTEQDSKDSTYSLSSTLTLSKADYEKHKVYACEVTHQGLSSPVTKSFNRGEC
B15: CODV-Ig Batch ID 201 (IL4 × IL13 on HC; L1=5, L2=3, L3=1, L4=2) (bispecific antibody)
chain 1: not shown
chain 2: B14 chain 2
B16: CODV-Ig Batch ID 233 (IL4 × IL13 on HC; L1=7, L2=3, L3=5, L4=0) (bispecific antibody)
chain 1: not shown
chain 2: DIVLTQSPASLAVSLGQRATISCRASESVDSYGQSYMHWYQQKAGQPPKLLIYLASNLESGVPARFSGSGSRTDFTLTIDPVQAEDAATYYCQQNAEDSRTFGGGTKLEIKGGGGGGGDIQMTQSPASLSVSVGDTITLTCHASQNIDVWLSWFQQKPGNIPKLLIYKASNLHTGVPSRFSGSGSGTGFTLTISSLQPEDIATYYCQQAHSYPFTFGGGTKLEIKGGGRTVAAPSVFIFPPSDEQLKSGTASVVCLLNNFYPREAKVQWKVDNALQSGNSQESVTEQDSKDSTYSLSSTLTLSKADYEKHKVYACEVTHQGLSSPVTKSFNRGEC
B17: CODV-Ig Batch ID 203 (IL4 × IL13 on HC; L1=7, L2=3, L3=1, L4=2) (bispecific antibody)
chain 1: not shown
chain 2: B16 chain 2

Residue numbers refer to the chain shown, from its start. Names and notes keep the numbering of the source.

For orientation: Kd means the free concentration of one partner at which half of the binding sites on the other are occupied at equilibrium, for simple one-to-one binding.

The target in the first assay is T1, recombinant human IL4. The assay can be described thus: SPR (Biacore 3000), antibody captured, antigen as analyte. (In general: SPR reads the build-up and loss of mass on a sensor chip optically.)
Procedure: (§1) Kinetic binding analysis by Biacore was performed as follows. Surface plasmon resonance technology on a Biacore 3000 (GE Healthcare) was used for detailed kinetic characterization of purified antibodies. […] Chip surfaces were regenerated with 10 mM glycine pH 2.5. Kinetic parameters were analyzed and calculated in the BIAevaluation program package v4.1 using a flow cell without captured antibody as a reference.
As to B1, the Kd was determined as 0.006 nM.

A further assay has as its target T1, recombinant human IL4. Described as above. This is another data set of the same source.
Procedure: as §1
For B2, the dissociation constant (Kd) turned out to be 0.001 nM.
Still for that read-out and setting: with B3 the figure was 0.007 nM.
Still for that read-out and setting: with B4 the figure was 0.006 nM; with B5, 0.001 nM; with B6, 0.001 nM.
Still for that read-out and setting: the same measure for B7: 0.003 nM; for B8: 0.008 nM.
On to B9, for which the Kd is 0.003 nM.

The next assay has as its target T1, recombinant human IL4. The assay is described as follows: cell-based or functional assay.
On to B1, for which the “IC50 Cellular Assay IL4 [nM] (HEK-Blue IL-4/IL-13 reporter cells, SEAP)” value (shortened to “IC50 Cellular Assay IL4 [nM]”) was determined as 0.027 nM.

The next assay has as its target T2, recombinant human IL4. The assay is described as follows: SPR (Biacore 3000), captured CODV-Ig, antigen as analyte.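 Note: kd derived from kinetic fits in BIAevaluation 4.1, with signals referenced against a flow cell lacking captured antibody.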
Procedure: as §1
With B10, the Kd is 0.005 nM.
On the same count and under the same terms, with B11 the figure was 0.0093 nM.
Still for that read-out and setting: with B12 the figure was 0.009 nM.
For B13, the Kd turned out to be 0.004 nM.
On the same count and under the same terms, the same measure for B14: 0.0081 nM; for B15: 0.004 nM.
Same read-out and setting: with B16 the figure was 0.003 nM.
The same measure, in the same setting: with B17 the figure was 0.08 nM.

In the next assay the target is T3, recombinant human IL13 (human, UniProt P35225 35-146, limits assumed).
T3 construct: bought; also called Antigen2
T3 sequence (P35225 35-146 limits assumed): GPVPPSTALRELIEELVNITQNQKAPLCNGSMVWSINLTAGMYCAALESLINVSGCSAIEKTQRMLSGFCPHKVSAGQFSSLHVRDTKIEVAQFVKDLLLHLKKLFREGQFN
The description is as above.
Procedure: as §1
In the case of B10, the Kd was 0.05 nM.
On the same count and under the same terms, the same measure for B11: 0.0672 nM; for B12: 0.054 nM; for B13: 0.065 nM.
With B14, the Kd worked out at 0.101 nM.
With B15, the Kd was determined as 0.072 nM.
On the same count and under the same terms, the same measure for B16: 0.113 nM.
Consider B17, for which the Kd turned out to be 0.046 nM.

The target in another assay is T1, recombinant human IL4. The assay is described as follows: cell-based or functional assay. This is another data set of the same source.
As to B2, the “IC50 Cellular Assay IL4 [nM]” value turned out to be 0.054 nM.
As for B3, the “IC50 Cellular Assay IL4 [nM]” value came to 0.045 nM.
Still for that read-out and setting: with B4 the figure was 0.033 nM; with B5, 0.04 nM; with B6, 0.034 nM.
On the same count and under the same terms, the same measure for B7: 0.049 nM.
For B8, the “IC50 Cellular Assay IL4 [nM]” value amounted to 0.042 nM.
Turning to B9, the “IC50 Cellular Assay IL4 [nM]” value is 0.047 nM.
